Starred links: 1 amine or outer side, 2 acyl side, 3 side chain; linkers in the order of their positions; H or OH if unused. Non-standard residues stand in square brackets, D forms with d. Groups on a side chain read outwards from the residue. No end group written: not given here. *: point of attachment. C20 diacid = O=C(O)CCCCCCCCCCCCCCCCCCC(=O)*; C18 diacid = O=C(O)CCCCCCCCCCCCCCCCC(=O)*; γGlu = O=C(O)[C@H](CCC(=O)[*:2])N[*:1]; AEEA = NCCOCCOCC(=O)O; Aib = CC(C)(N)C(=O)O

The labels stand for the following.
T1: human glucose-dependent insulinotropic polypeptide (GIP) receptor (human, UniProt P48546 22-466)
T1 construct: whole, on cells; Assayed as crude membranes of stably transfected CHO cells; also called hGIPR; human GIP receptor
T1 sequence (looked up): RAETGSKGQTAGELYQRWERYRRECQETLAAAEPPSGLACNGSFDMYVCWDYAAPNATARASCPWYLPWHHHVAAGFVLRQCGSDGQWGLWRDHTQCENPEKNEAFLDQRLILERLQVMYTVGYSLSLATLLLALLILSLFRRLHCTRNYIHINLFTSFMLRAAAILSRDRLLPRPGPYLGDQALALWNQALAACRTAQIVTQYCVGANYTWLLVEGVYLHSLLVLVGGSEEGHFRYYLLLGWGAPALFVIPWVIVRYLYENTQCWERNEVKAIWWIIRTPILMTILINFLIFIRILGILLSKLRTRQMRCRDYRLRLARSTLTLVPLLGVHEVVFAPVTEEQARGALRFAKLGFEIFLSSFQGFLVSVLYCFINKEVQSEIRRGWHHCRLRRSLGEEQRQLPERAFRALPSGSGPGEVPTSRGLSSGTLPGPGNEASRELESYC

B1: Example 75 (peptide)
peptide: YXEGTXISDYSIXLDKKHQXDFVEXLLETGPSSGAPPPS
modifications: Aib2; Iva6; αMeL13; K17((2-[2-(2-Amino-ethoxy)-ethoxy]-acetyl)2-(γ-Glu)-CO-(CH2)18-CO2H); Aib20; 4-Pal25; C-terminal amide
B2: Example 93 (peptide)
peptide: Y[dA]EGTFISDYSILLDKIAQ[Aib]DFVNWK([AEEA-AEEA-γGlu-C18 diacid])LAQGPSSGAPPPS-NH2
modifications: N-terminus assumed
SMILES: CC[C@H](C)[C@H](NC(=O)[C@H](CCCCN)NC(=O)[C@H](CC(=O)O)NC(=O)[C@H](CC(C)C)NC(=O)[C@H](CC(C)C)NC(=O)[C@@H](NC(=O)[C@H](CO)NC(=O)[C@H](Cc1ccc(O)cc1)NC(=O)[C@H](CC(=O)O)NC(=O)[C@H](CO)NC(=O)[C@@H](NC(=O)[C@H](Cc1ccccc1)NC(=O)[C@@H](NC(=O)CNC(=O)[C@H](CCC(=O)O)NC(=O)[C@@H](C)NC(=O)[C@@H](N)Cc1ccc(O)cc1)[C@@H](C)O)[C@@H](C)CC)[C@@H](C)CC)C(=O)N[C@@H](C)C(=O)N[C@@H](CCC(N)=O)C(=O)NC(C)(C)C(=O)N[C@@H](CC(=O)O)C(=O)N[C@@H](Cc1ccccc1)C(=O)N[C@H](C(=O)N[C@@H](CC(N)=O)C(=O)N[C@@H](Cc1c[nH]c2ccccc12)C(=O)N[C@@H](CCCCNC(=O)COCCOCCNC(=O)COCCOCCNC(=O)CC[C@H](NC(=O)CCCCCCCCCCCCCCCCC(=O)O)C(=O)O)C(=O)N[C@@H](CC(C)C)C(=O)N[C@@H](C)C(=O)N[C@@H](CCC(N)=O)C(=O)NCC(=O)N1CCC[C@H]1C(=O)N[C@@H](CO)C(=O)N[C@@H](CO)C(=O)NCC(=O)N[C@@H](C)C(=O)N1CCC[C@H]1C(=O)N1CCC[C@H]1C(=O)N1CCC[C@H]1C(=O)N[C@@H](CO)C(N)=O)C(C)C
B3: Example 13 (peptide)
peptide: Y[dA]EGTFISDYSILLDKK([AEEA-AEEA-γGlu-C20 diacid])HQQEFVNWLLAQGPSSGAPPPS-NH2
modifications: N-terminus assumed
SMILES: CC[C@H](C)[C@H](NC(=O)[C@H](CO)NC(=O)[C@H](Cc1ccc(O)cc1)NC(=O)[C@H](CC(=O)O)NC(=O)[C@H](CO)NC(=O)[C@@H](NC(=O)[C@H](Cc1ccccc1)NC(=O)[C@@H](NC(=O)CNC(=O)[C@H](CCC(=O)O)NC(=O)[C@@H](C)NC(=O)[C@@H](N)Cc1ccc(O)cc1)[C@@H](C)O)[C@@H](C)CC)C(=O)N[C@@H](CC(C)C)C(=O)N[C@@H](CC(C)C)C(=O)N[C@@H](CC(=O)O)C(=O)N[C@@H](CCCCN)C(=O)N[C@@H](CCCCNC(=O)COCCOCCNC(=O)COCCOCCNC(=O)CC[C@H](NC(=O)CCCCCCCCCCCCCCCCCCC(=O)O)C(=O)O)C(=O)N[C@@H](Cc1c[nH]cn1)C(=O)N[C@@H](CCC(N)=O)C(=O)N[C@@H](CCC(N)=O)C(=O)N[C@@H](CCC(=O)O)C(=O)N[C@@H](Cc1ccccc1)C(=O)N[C@H](C(=O)N[C@@H](CC(N)=O)C(=O)N[C@@H](Cc1c[nH]c2ccccc12)C(=O)N[C@@H](CC(C)C)C(=O)N[C@@H](CC(C)C)C(=O)N[C@@H](C)C(=O)N[C@@H](CCC(N)=O)C(=O)NCC(=O)N1CCC[C@H]1C(=O)N[C@@H](CO)C(=O)N[C@@H](CO)C(=O)NCC(=O)N[C@@H](C)C(=O)N1CCC[C@H]1C(=O)N1CCC[C@H]1C(=O)N1CCC[C@H]1C(=O)N[C@@H](CO)C(N)=O)C(C)C
B4: Example 15 (peptide)
peptide: Y[dA]EGTFISDYSILLDKK([AEEA-AEEA-γGlu-C20 diacid])HQQDFVNYLLAQGPSSGAPPPS-NH2
modifications: N-terminus assumed
SMILES: CC[C@H](C)[C@H](NC(=O)[C@H](CO)NC(=O)[C@H](Cc1ccc(O)cc1)NC(=O)[C@H](CC(=O)O)NC(=O)[C@H](CO)NC(=O)[C@@H](NC(=O)[C@H](Cc1ccccc1)NC(=O)[C@@H](NC(=O)CNC(=O)[C@H](CCC(=O)O)NC(=O)[C@@H](C)NC(=O)[C@@H](N)Cc1ccc(O)cc1)[C@@H](C)O)[C@@H](C)CC)C(=O)N[C@@H](CC(C)C)C(=O)N[C@@H](CC(C)C)C(=O)N[C@@H](CC(=O)O)C(=O)N[C@@H](CCCCN)C(=O)N[C@@H](CCCCNC(=O)COCCOCCNC(=O)COCCOCCNC(=O)CC[C@H](NC(=O)CCCCCCCCCCCCCCCCCCC(=O)O)C(=O)O)C(=O)N[C@@H](Cc1c[nH]cn1)C(=O)N[C@@H](CCC(N)=O)C(=O)N[C@@H](CCC(N)=O)C(=O)N[C@@H](CC(=O)O)C(=O)N[C@@H](Cc1ccccc1)C(=O)N[C@H](C(=O)N[C@@H](CC(N)=O)C(=O)N[C@@H](Cc1ccc(O)cc1)C(=O)N[C@@H](CC(C)C)C(=O)N[C@@H](CC(C)C)C(=O)N[C@@H](C)C(=O)N[C@@H](CCC(N)=O)C(=O)NCC(=O)N1CCC[C@H]1C(=O)N[C@@H](CO)C(=O)N[C@@H](CO)C(=O)NCC(=O)N[C@@H](C)C(=O)N1CCC[C@H]1C(=O)N1CCC[C@H]1C(=O)N1CCC[C@H]1C(=O)N[C@@H](CO)C(N)=O)C(C)C
B5: Example 14 (peptide)
peptide: Y[dA]EGTFISDYSILLDKK([AEEA-AEEA-γGlu-C20 diacid])HQQDFVEWLLAQGPSSGAPPPS-NH2
modifications: N-terminus assumed
SMILES: CC[C@H](C)[C@H](NC(=O)[C@H](CO)NC(=O)[C@H](Cc1ccc(O)cc1)NC(=O)[C@H](CC(=O)O)NC(=O)[C@H](CO)NC(=O)[C@@H](NC(=O)[C@H](Cc1ccccc1)NC(=O)[C@@H](NC(=O)CNC(=O)[C@H](CCC(=O)O)NC(=O)[C@@H](C)NC(=O)[C@@H](N)Cc1ccc(O)cc1)[C@@H](C)O)[C@@H](C)CC)C(=O)N[C@@H](CC(C)C)C(=O)N[C@@H](CC(C)C)C(=O)N[C@@H](CC(=O)O)C(=O)N[C@@H](CCCCN)C(=O)N[C@@H](CCCCNC(=O)COCCOCCNC(=O)COCCOCCNC(=O)CC[C@H](NC(=O)CCCCCCCCCCCCCCCCCCC(=O)O)C(=O)O)C(=O)N[C@@H](Cc1c[nH]cn1)C(=O)N[C@@H](CCC(N)=O)C(=O)N[C@@H](CCC(N)=O)C(=O)N[C@@H](CC(=O)O)C(=O)N[C@@H](Cc1ccccc1)C(=O)N[C@H](C(=O)N[C@@H](CCC(=O)O)C(=O)N[C@@H](Cc1c[nH]c2ccccc12)C(=O)N[C@@H](CC(C)C)C(=O)N[C@@H](CC(C)C)C(=O)N[C@@H](C)C(=O)N[C@@H](CCC(N)=O)C(=O)NCC(=O)N1CCC[C@H]1C(=O)N[C@@H](CO)C(=O)N[C@@H](CO)C(=O)NCC(=O)N[C@@H](C)C(=O)N1CCC[C@H]1C(=O)N1CCC[C@H]1C(=O)N1CCC[C@H]1C(=O)N[C@@H](CO)C(N)=O)C(C)C

The assay deals with T1, human glucose-dependent insulinotropic …. Briefly: SPA, displacement of [125I]-GIP from hGIPR membranes, 0.1% bacitracin. How it is done:
The binding buffer contains 25 mM HEPES, pH 7.4, 2.5 mM CaCl₂, 1 mM MgCl₂, 0.1% (w/v) bacitracin, 0.003% (w/v) TWEEN®-20, and Roche Complete™ Protease Inhibitors without EDTA. […] Plates are sealed and mixed on a plate shaker (setting 6) for 1 minute and read with a PerkinElmer Trilux MicroBeta® scintillation counter after 2.5 to 12 hours of incubation/settling time at room temperature.
Data are analyzed using four-parameter (curve maximum, curve minimum, […], Hill slope) nonlinear regression routines (Genedata Screener, version 12.0.4, Genedata AG, Basal, Switzerland). […] Values for Kᵢ are reported as the geometric mean, with error expressed as the standard error of the mean (SEM) and n is equal to the number of independent replicates (determined in assays performed on different days). Geometric Means are calculated as follows: […]
For orientation: Loss of bound radioactivity is the signal in a displacement assay; it reports binding, not function.
B1 yielded a Ki of 0.0626 nM.

As to B2, the affinity, expressed as Ki, was 0.043 nM.

Molecule B3 showed a Ki of 0.237 nM.

Consider B4, for which the Ki was found to be 0.471 nM.

The molecule B5 yielded a Ki of 0.46 nM.

One may read the Ki as the equilibrium dissociation constant of an inhibitor or competing ligand from its target. Low values mean tighter binding, high ones weaker binding.

Source of the values: US20210032299A1 (Eli Lilly, published 2021).
